From PMC5288196, “Native and engineered tropism of vectors derived from a rare species D adenovirus serotype 43” (Oncotarget, 2016)

Biological target: T1, adenovirus serotype 5 virions (human adenovirus serotype 5)
T1 chain: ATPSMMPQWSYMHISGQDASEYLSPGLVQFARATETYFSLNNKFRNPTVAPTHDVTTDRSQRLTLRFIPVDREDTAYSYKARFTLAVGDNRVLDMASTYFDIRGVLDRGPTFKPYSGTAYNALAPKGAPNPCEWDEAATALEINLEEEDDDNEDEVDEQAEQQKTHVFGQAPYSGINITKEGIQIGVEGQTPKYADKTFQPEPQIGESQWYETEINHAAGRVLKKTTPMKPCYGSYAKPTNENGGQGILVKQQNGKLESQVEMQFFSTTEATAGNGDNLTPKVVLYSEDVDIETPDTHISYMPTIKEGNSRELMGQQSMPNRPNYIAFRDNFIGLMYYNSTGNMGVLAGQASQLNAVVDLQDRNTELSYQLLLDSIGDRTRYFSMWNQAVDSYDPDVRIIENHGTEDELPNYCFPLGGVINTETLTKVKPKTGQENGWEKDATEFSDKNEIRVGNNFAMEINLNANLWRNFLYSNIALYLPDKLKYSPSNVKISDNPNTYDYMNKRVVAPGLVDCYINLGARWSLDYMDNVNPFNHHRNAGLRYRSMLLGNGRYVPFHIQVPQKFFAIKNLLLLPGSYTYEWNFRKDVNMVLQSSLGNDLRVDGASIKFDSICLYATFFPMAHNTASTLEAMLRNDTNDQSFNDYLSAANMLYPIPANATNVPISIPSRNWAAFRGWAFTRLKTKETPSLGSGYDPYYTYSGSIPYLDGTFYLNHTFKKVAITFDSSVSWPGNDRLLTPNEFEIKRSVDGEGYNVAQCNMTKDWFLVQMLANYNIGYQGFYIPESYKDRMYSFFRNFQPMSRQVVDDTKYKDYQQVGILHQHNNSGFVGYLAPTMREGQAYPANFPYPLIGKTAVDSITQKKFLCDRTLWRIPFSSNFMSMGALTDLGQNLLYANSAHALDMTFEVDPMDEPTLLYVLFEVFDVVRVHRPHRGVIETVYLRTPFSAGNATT
Test: SPR; Ad virions immobilised on the chip, probed with soluble FX in serial two-fold dilutions from 0.4 to 25 μg/ml, in duplicates
Settings: both partners purified

B1: blood coagulation factor X (natural protein)
chain 1: ANSFLEEMKKGHLERECMEETCSYEEAREVFEDSDKTNEFWNKYKDGDQCETSPCQNQGKCKDGLGEYTCTCLEGFEGKNCELFTRKLCSLDNGDCDQFCHEEQNSVVCSCARGYTLADNGKACIPTGPYPCGKQTLER
chain 2: SVAQATSSSGEAPDSITWKPYDAADLDPTENPFDLLDFNQTQPERGDNNLTRIVGGQECKDGECPWQALLINEENEGFCGGTILSEFYILTAAHCLYQAKRFKVRVGDRNTEQEEGGEAVHEVEVVIKHNRFTKETYDFDIAVLRLKTPITFRMNVAPACLPERDWAESTLMTQKTGIVSGFGRTHEKGRQSTRLKMLEVPYVDRNSCKLSSSFIITQNMFCAGYDTKQEDACQGDSGGPHVTRFKDTYFVTGIVSWGEGCARKGKYGIYTKVTAFLKWIDRSMKTRGLPKAKSHAPEVITSSPLK
modifications: Zymogen FX assumed (not FXa): light chain disulfide-linked to heavy chain with the activation peptide retained. Gamma-carboxylated Gla domain, beta-hydroxy-Asp, N-/O-glycosylation; Ca2+-bound state …
In the case of B1, the Kd is reported as 1.5 nM.
